Data on 4 molecules can be found in patent US20140087995A1 (published 2014).

This test addresses T1, human amylin 3(a) receptor (human calcitonin receptor co-expressed with RAMP-3) (human, UniProt P30988 25-474; O60896 24-148, limits assumed).
T1 sequence (looked up) 1: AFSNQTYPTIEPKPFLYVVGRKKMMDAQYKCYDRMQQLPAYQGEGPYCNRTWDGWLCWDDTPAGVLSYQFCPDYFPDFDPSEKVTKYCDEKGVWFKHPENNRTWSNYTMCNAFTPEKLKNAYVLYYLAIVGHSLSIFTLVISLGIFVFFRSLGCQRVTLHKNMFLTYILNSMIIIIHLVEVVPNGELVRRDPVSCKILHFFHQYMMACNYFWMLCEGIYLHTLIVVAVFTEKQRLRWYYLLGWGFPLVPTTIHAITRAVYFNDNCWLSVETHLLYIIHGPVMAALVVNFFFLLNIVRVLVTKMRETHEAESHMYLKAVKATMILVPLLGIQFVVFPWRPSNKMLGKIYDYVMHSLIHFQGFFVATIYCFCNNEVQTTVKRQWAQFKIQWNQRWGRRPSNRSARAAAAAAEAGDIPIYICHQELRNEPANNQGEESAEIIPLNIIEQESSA
T1 sequence (looked up) 2: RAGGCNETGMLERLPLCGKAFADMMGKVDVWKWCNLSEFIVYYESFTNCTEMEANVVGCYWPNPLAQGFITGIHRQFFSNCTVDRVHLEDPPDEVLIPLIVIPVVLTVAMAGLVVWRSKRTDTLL
Kind of test: cell-based or functional assay.

Numbered stars: 1 amine (or outer) side, 2 acyl side, 3 side chain; on linkers, the order of the positions; unused ones are H or OH. Bridge positions count the residues as written; N and C are the ends. Side chains are listed from the residue outwards. Ends that are not written are not given here. * marks the point of attachment. C20 diacid = O=C(O)CCCCCCCCCCCCCCCCCCC(=O)*; γGlu = O=C(O)[C@H](CCC(=O)[*:2])N[*:1]

B1: N^ε1-[(4S)-4-carboxy-4-(19-carboxynonadecanoylamino)butanoyl]-[His14,Arg17,Pro21,Pro27]-h-amylin (peptide)
peptide: K([γGlu-C20 diacid])CNTATCATQRLAHFLRHSSPNFGAIPSSTNVGSNTY-NH2
modifications: disulfide 2-7; N-terminus assumed
SMILES: CC[C@H](C)[C@H](NC(=O)[C@H](C)NC(=O)CNC(=O)[C@H](Cc1ccccc1)NC(=O)[C@H](CC(N)=O)NC(=O)[C@@H]1CCCN1C(=O)[C@H](CO)NC(=O)[C@H](CO)NC(=O)[C@H](Cc1c[nH]cn1)NC(=O)[C@H](CCCNC(=N)N)NC(=O)[C@H](CC(C)C)NC(=O)[C@H](Cc1ccccc1)NC(=O)[C@H](Cc1c[nH]cn1)NC(=O)[C@H](C)NC(=O)[C@H](CC(C)C)NC(=O)[C@H](CCCNC(=N)N)NC(=O)[C@H](CCC(N)=O)NC(=O)[C@@H](NC(=O)[C@H](C)NC(=O)[C@@H]1CSSC[C@H](NC(=O)[C@@H](N)CCCCNC(=O)CC[C@H](NC(=O)CCCCCCCCCCCCCCCCCCC(=O)O)C(=O)O)C(=O)N[C@@H](CC(N)=O)C(=O)N[C@@H]([C@@H](C)O)C(=O)N[C@@H](C)C(=O)N[C@@H]([C@@H](C)O)C(=O)N1)[C@@H](C)O)C(=O)N1CCC[C@H]1C(=O)N[C@@H](CO)C(=O)N[C@@H](CO)C(=O)N[C@H](C(=O)N[C@@H](CC(N)=O)C(=O)N[C@H](C(=O)NCC(=O)N[C@@H](CO)C(=O)N[C@@H](CC(N)=O)C(=O)N[C@H](C(=O)N[C@@H](Cc1ccc(O)cc1)C(N)=O)[C@@H](C)O)C(C)C)[C@@H](C)O
notes: also called compound 70
On to B1, for which the “Ratio hCT/hAmylin funct. (hCTR EC50 over hAmylin-R EC50)” value stood at 17.9 and the “hAmylin-R funct. EC50 (pM)” value was 40 pM.

B2: N^ε1-[(4S)-4-carboxy-4-[[(4S)-4-carboxy-4-(19-carboxynonadecanoylamino)butanoyl]amino]butanoyl]-[Asp14,Arg17,Pro21,Pro27,Asp35]-h-amylin (peptide)
peptide: K([γGlu-γGlu-C20 diacid])CNTATCATQRLADFLRHSSPNFGAIPSSTNVGSDTY-NH2
modifications: disulfide 2-7; N-terminus assumed
SMILES: CC[C@H](C)[C@H](NC(=O)[C@H](C)NC(=O)CNC(=O)[C@H](Cc1ccccc1)NC(=O)[C@H](CC(N)=O)NC(=O)[C@@H]1CCCN1C(=O)[C@H](CO)NC(=O)[C@H](CO)NC(=O)[C@H](Cc1c[nH]cn1)NC(=O)[C@H](CCCNC(=N)N)NC(=O)[C@H](CC(C)C)NC(=O)[C@H](Cc1ccccc1)NC(=O)[C@H](CC(=O)O)NC(=O)[C@H](C)NC(=O)[C@H](CC(C)C)NC(=O)[C@H](CCCNC(=N)N)NC(=O)[C@H](CCC(N)=O)NC(=O)[C@@H](NC(=O)[C@H](C)NC(=O)[C@@H]1CSSC[C@H](NC(=O)[C@@H](N)CCCCNC(=O)CC[C@H](NC(=O)CC[C@H](NC(=O)CCCCCCCCCCCCCCCCCCC(=O)O)C(=O)O)C(=O)O)C(=O)N[C@@H](CC(N)=O)C(=O)N[C@@H]([C@@H](C)O)C(=O)N[C@@H](C)C(=O)N[C@@H]([C@@H](C)O)C(=O)N1)[C@@H](C)O)C(=O)N1CCC[C@H]1C(=O)N[C@@H](CO)C(=O)N[C@@H](CO)C(=O)N[C@H](C(=O)N[C@@H](CC(N)=O)C(=O)N[C@H](C(=O)NCC(=O)N[C@@H](CO)C(=O)N[C@@H](CC(=O)O)C(=O)N[C@H](C(=O)N[C@@H](Cc1ccc(O)cc1)C(N)=O)[C@@H](C)O)C(C)C)[C@@H](C)O
notes: also called compound 2
In the case of B2, the “Ratio hCT/hAmylin funct. (hCTR EC50 over hAmylin-R EC50)” value was 16.4 and the “hAmylin-R funct. EC50 (pM)” value stood at 182 pM.

B3: N^ε1-[(4S)-4-carboxy-4-[[(4S)-4-carboxy-4-(19-carboxynonadecanoylamino)butanoyl]amino]butanoyl]-[Arg17,Pro21,Pro27,His34]-h-amylin (peptide)
peptide: K([γGlu-γGlu-C20 diacid])CNTATCATQRLANFLRHSSPNFGAIPSSTNVGHNTY-NH2
modifications: disulfide 2-7; N-terminus assumed
SMILES: CC[C@H](C)[C@H](NC(=O)[C@H](C)NC(=O)CNC(=O)[C@H](Cc1ccccc1)NC(=O)[C@H](CC(N)=O)NC(=O)[C@@H]1CCCN1C(=O)[C@H](CO)NC(=O)[C@H](CO)NC(=O)[C@H](Cc1c[nH]cn1)NC(=O)[C@H](CCCNC(=N)N)NC(=O)[C@H](CC(C)C)NC(=O)[C@H](Cc1ccccc1)NC(=O)[C@H](CC(N)=O)NC(=O)[C@H](C)NC(=O)[C@H](CC(C)C)NC(=O)[C@H](CCCNC(=N)N)NC(=O)[C@H](CCC(N)=O)NC(=O)[C@@H](NC(=O)[C@H](C)NC(=O)[C@@H]1CSSC[C@H](NC(=O)[C@@H](N)CCCCNC(=O)CC[C@H](NC(=O)CC[C@H](NC(=O)CCCCCCCCCCCCCCCCCCC(=O)O)C(=O)O)C(=O)O)C(=O)N[C@@H](CC(N)=O)C(=O)N[C@@H]([C@@H](C)O)C(=O)N[C@@H](C)C(=O)N[C@@H]([C@@H](C)O)C(=O)N1)[C@@H](C)O)C(=O)N1CCC[C@H]1C(=O)N[C@@H](CO)C(=O)N[C@@H](CO)C(=O)N[C@H](C(=O)N[C@@H](CC(N)=O)C(=O)N[C@H](C(=O)NCC(=O)N[C@@H](Cc1c[nH]cn1)C(=O)N[C@@H](CC(N)=O)C(=O)N[C@H](C(=O)N[C@@H](Cc1ccc(O)cc1)C(N)=O)[C@@H](C)O)C(C)C)[C@@H](C)O
notes: also called compound 86
For B3, the “Ratio hCT/hAmylin funct. (hCTR EC50 over hAmylin-R EC50)” value came to 64.4 and the “hAmylin-R funct. EC50 (pM)” value worked out at 298 pM.

B4: N^ε1-[(4S)-4-carboxy-4-[[(4S)-4-carboxy-4-(19-carboxynonadecanoylamino)butanoyl]amino]butanoyl]-[Glu14,Arg17,Pro21,Pro27,Arg35]-h-amylin (peptide)
peptide: K([γGlu-γGlu-C20 diacid])CNTATCATQRLAEFLRHSSPNFGAIPSSTNVGSRTY-NH2
modifications: disulfide 2-7; N-terminus assumed
SMILES: CC[C@H](C)[C@H](NC(=O)[C@H](C)NC(=O)CNC(=O)[C@H](Cc1ccccc1)NC(=O)[C@H](CC(N)=O)NC(=O)[C@@H]1CCCN1C(=O)[C@H](CO)NC(=O)[C@H](CO)NC(=O)[C@H](Cc1c[nH]cn1)NC(=O)[C@H](CCCNC(=N)N)NC(=O)[C@H](CC(C)C)NC(=O)[C@H](Cc1ccccc1)NC(=O)[C@H](CCC(=O)O)NC(=O)[C@H](C)NC(=O)[C@H](CC(C)C)NC(=O)[C@H](CCCNC(=N)N)NC(=O)[C@H](CCC(N)=O)NC(=O)[C@@H](NC(=O)[C@H](C)NC(=O)[C@@H]1CSSC[C@H](NC(=O)[C@@H](N)CCCCNC(=O)CC[C@H](NC(=O)CC[C@H](NC(=O)CCCCCCCCCCCCCCCCCCC(=O)O)C(=O)O)C(=O)O)C(=O)N[C@@H](CC(N)=O)C(=O)N[C@@H]([C@@H](C)O)C(=O)N[C@@H](C)C(=O)N[C@@H]([C@@H](C)O)C(=O)N1)[C@@H](C)O)C(=O)N1CCC[C@H]1C(=O)N[C@@H](CO)C(=O)N[C@@H](CO)C(=O)N[C@H](C(=O)N[C@@H](CC(N)=O)C(=O)N[C@H](C(=O)NCC(=O)N[C@@H](CO)C(=O)N[C@@H](CCCNC(=N)N)C(=O)N[C@H](C(=O)N[C@@H](Cc1ccc(O)cc1)C(N)=O)[C@@H](C)O)C(C)C)[C@@H](C)O
notes: also called compound 89
On to B4, for which the “Ratio hCT/hAmylin funct. (hCTR EC50 over hAmylin-R EC50)” value was determined as 27.8 and the “hAmylin-R funct. EC50 (pM)” value came out at 404 pM.
